# T1: Mtb Ku (from Ku-HIS, TEV-cleaved) (Mycobacterium tuberculosis, UniProt A5U0X7 1-273)
# T1 sequence: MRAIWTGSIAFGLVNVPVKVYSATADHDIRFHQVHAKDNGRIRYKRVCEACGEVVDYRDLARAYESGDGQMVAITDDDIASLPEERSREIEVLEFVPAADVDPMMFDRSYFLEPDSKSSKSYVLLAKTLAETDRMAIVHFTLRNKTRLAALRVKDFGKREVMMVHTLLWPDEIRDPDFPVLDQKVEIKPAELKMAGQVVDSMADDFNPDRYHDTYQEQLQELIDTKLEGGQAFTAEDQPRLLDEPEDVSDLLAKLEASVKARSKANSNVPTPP
# T2: Mtb Ku released from RFP-Ku by TEV (Mycobacterium tuberculosis, UniProt A5U0X7 1-273)
# T2 sequence: T1 sequence
# B1: 32/20dT DNA (called 30 bp/20 dT in legends) (dsDNA)
# DNA 1: GCCCTGCTGCCGACCAACGATGGTTACATTCC
# DNA 2: GGAATGTAACCATCGTTGGTCGGCAGCAGGGCTTTTTTTTTTTTTTTTTTTT
# B2: 50 bp blunt end (dsDNA)
# DNA 1: GCTAAGTCATCGTCTGTCGATCGATCTCTCGAGTAGTACAGGTCTAGAGG
# DNA 2: CCTCTAGACCTGTACTACTCGAGAGATCGATCGACAGACGATGACTTAGC
# How the values were obtained:
# [1] = biological target: T1, Mtb Ku (from Ku-HIS, TEV-cleaved); assay: EMSA
# [2] = biological target: T2, Mtb Ku released from RFP-Ku by TEV; assay: EMSA
Binder,binding result [1],binding result [2]
B1,binds,binds
B2,binds,–

# From publication doi:10.64898/2025.12.16.694593 (bioRxiv, 2025)
